Publication PMC3604133

Target: Aβ40-S26C (synthetic human Aβ1-40 in which Ser26 was changed to cysteine) (human)
Test: SEC

Aβ40-S26C (synthetic human Aβ1-40 in which Ser26 was changed to cysteine) (peptide)
stoichiometry N: 2
